Data taken from doi:10.1101/2025.07.02.662585 (bioRxiv, 2025).

B3: Avo1 (natural protein)
chain: MDTVTVLNELRAQFLRVCPEKDQMKRIIKPYIPVDEFNTEQCLDSSIRELYMNSDGVSLLPELESPPVSKDFMENYASLGKMRIMRENEGQKGKANQNLIGAEKTERDEEETRNLQDKSAKNTLIVEENGTLRYNPLNSSASNSLLNDDDHTSGKHHKTSSKEDSYLNSSMEMQKKSSKRSSLPFVRIFKSRRDHSNTSGNKNVMNTTNTRAKSSTLHPPGARHNKKGSKFDMNFDFDENLEEEDDDDDDDEEGDDIHSQFFQLDDDFDAKGSGASPAHKGINGMSNNKNNTYTNNRNSISILDDRESSNGNIGSASRLKSHFPTSQKGKIFLTDNKNDGQKSDSLNANKGIHGDGSSASGNGSVSRDGLTETESNNISDMESYINEKDLDDLNFDTVTSNINKTVSDLGGHESTNDGTAVMNRDSKDSRSNSNEFNAQNRDRITPGSSYGKSLLGSEYSEERYSNNDSSTMESGEMSLDSDMQTNTIPSHSIPMSMQKYGIYHGDDDSTLNNVFDKAVLTMNSSRHPKERRDTVISGKEPTSLTSSNRKFSVSSNLTSTRSPLLRGHGRTSSTASSEHMKAPKVSDSVLHRARKSTLTLKQDHSQPSVPSSVHKSSKEGNILIEKTTDYLVSKPKASQLSNMFNKKKKRTNTNSVDVLEYFSFVCGDKVPNYESMGLEIYIQASKKYKRNSFTTKVRKSSTIFEVIGFALFLYSTEKKPDNFEEDGLTVEDISNPNNFSLKIVDEDGEPFEDNFGKLDRKSTIQSISDSEVVLCKVDDAEKSQNEIETPLPFETGGGLMDASTLDANSSHDTTDGTINQLSFYKPIIGNEDDIDKTNGSKIIDVTVYLYPNVNPKFNYTTISVLVTSHINDILVKYCKMKNMDPNEYALKVLGKNYILDLNDTVLRLDGINKVELISKKDARELHLEKMKPDLKKPVLPTIQSNDLTPLTLEPLNSYLKADAGGAVAAIPENTKVTSKAKKISTKYKLGLAKQHSSSSVASGSVSTAGGLANGNGFFKNKNSSKSSLHGTLQFHNINRSQSTMEHTPDTPNGVGDNFQDLFTGAYHKYKVWRRQQMSFINKHERTLAIDGDYIYIVPPEGRIHWHDNVKTKSLHISQVVLVKKSKRVPEHFKIFVRREGQDDIKRYYFEAVSGQECTEIVTRLQNLLSAYRMNHK

What was measured:
Avo3 = target: T1, Avo3 (yeast (endogenous in yeast cells), UniProt P40061 1-1430); test: cryo-EM structure
T1 sequence: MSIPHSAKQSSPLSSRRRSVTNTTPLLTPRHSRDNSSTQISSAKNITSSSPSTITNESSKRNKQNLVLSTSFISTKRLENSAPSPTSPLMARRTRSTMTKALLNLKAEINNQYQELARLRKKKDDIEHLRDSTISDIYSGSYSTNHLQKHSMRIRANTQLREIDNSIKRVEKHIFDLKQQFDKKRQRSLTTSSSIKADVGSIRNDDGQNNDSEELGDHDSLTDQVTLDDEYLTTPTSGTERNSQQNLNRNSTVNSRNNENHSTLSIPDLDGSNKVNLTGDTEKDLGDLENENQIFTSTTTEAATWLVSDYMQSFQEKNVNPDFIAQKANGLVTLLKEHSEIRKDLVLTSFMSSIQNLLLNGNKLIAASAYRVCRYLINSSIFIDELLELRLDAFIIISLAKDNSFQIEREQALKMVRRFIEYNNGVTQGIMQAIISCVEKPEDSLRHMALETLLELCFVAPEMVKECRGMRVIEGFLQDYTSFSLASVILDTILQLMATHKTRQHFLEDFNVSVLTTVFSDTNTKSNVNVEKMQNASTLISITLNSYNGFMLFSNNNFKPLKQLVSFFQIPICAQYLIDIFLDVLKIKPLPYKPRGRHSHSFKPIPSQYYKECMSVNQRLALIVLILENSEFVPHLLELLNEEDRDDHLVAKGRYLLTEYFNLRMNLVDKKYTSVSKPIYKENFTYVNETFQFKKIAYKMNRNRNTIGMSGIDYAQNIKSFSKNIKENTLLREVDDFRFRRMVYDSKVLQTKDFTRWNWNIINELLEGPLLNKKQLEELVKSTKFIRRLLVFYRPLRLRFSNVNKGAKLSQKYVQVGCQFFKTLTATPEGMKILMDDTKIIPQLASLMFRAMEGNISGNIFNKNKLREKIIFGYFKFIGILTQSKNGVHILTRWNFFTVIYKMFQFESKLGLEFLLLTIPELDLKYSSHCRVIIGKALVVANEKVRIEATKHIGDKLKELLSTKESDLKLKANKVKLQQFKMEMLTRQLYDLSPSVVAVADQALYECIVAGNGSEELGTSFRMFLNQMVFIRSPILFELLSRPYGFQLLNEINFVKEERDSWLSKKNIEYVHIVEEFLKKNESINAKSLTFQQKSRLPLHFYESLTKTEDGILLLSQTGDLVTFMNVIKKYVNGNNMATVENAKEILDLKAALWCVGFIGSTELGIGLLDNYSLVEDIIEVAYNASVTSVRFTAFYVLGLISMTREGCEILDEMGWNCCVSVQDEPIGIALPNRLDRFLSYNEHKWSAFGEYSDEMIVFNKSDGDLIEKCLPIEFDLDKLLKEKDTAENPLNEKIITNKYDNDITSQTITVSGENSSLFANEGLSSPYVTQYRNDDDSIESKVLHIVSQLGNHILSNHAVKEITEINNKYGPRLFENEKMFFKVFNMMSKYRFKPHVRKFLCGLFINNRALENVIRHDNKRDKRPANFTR

Avo1 = target: B3; test: cryo-EM structure

B1: Avo2 (natural protein)
chain: MLKEPSVRLREAIIEGNLLIVKRLLRRNPDLLTNIDSENGWSSLHYASYHGRYLICVYLIQLGHDKHELIKTFKGNTCVHLALMKGHEQTLHLLLQQFPRFINHRGENGRAPIHIACMNDYYQCLSLLIGVGADLWVMDTNGDTPLHVCLEYGSISCMKMLLNEGEVSLDDNVRDKGNWKPIDVAQTFEVGNIYSKVLKEVKKKGPPLGAGKKPSSFRTPILNAKATFEDGPSPVLSMNSPYSLYSNNSPLPVLPRRISTHTTSGNGGNRRSSITNPVFNPRKPTLSTDSFSSSSNSSSRLRVNSINVKTPVGVSPKKELVSESVRHSATPTSPHNNIALINRYLLPNKSNDNVRGDSQTATINDDGGGGNGGDATIGMGLRKDPDDENENKYKIKVNNGEPRRRVSLLNIPISKLRNSNNTRAED
- binding result (Avo3): binds

B2: Bit61 (natural protein)
chain: MTAEDILLRERTSTTTQRPVNSEQYLNVQLATAPVKNFQTTSEISRQTLVDTSNDDVYSIKNLKGSRNPISPSVSNVGFQSIFHTVDHPRSKVSVASNHSLRSNDNASAATSKSGSSQIGESHSVDTVECSNNLSKKLSSDAISITQKSLHSTPSGRYMKGKASGFFNRRNRAHTTISSDPASFLTDSSTLHNSSHSFRNVIKNFFQNKSHRHIGQDAIEPAIPNSLSKFLHSSYGRHKSPSQFIHTNAGQLVDSGTSVYSLNVNPSGVNPNTIVEDPLSGTDPASPNPVSMLHDLLRNLPSLEANYKHFNSQELTTLTNNIWNIFCSNVAELFRTQRIWKLRAKIENFNEVLEFYCILKTDPRVTHSGMNRIISDLKEFLVSSLYNLENQIVFNYSNEDTINNALKRLGVIWRIFYQEVYYDLAAVLLPLDQSIREDGNSTVLKSGNESRTHINGNYSIGFLLLMCFRDSIVLPCYENFVNSNDGISKSFQLYIFNQEEESNVTETDKLTLLQCFGILSTIQSNDRNQRIIEELLAGIRMSI
- binding result (Avo3): binds

Binder: B3
- binding result (Avo3): binds

B4: Lst8 (natural protein)
chain: MSVILVSAGYDHTIRFWEALTGVCSRTIQHSDSQVNRLEITNDKKLLATAGHQNVRLYDIRTTNPNPVASFEGHRGNVTSVSFQQDNRWMVTSSEDGTIKVWDVRSPSIPRNYKHNAPVNEVVIHPNQGELISCDRDGNIRIWDLGENQCTHQLTPEDDTSLQSLSMASDGSMLAAANTKGNCYVWEMPNHTDASHLKPVTKFRAHSTYITRILLSSDVKHLATCSADHTARVWSIDDDFKLETTLDGHQRWVWDCAFSADSAYLVTASSDHYVRLWDLSTREIVRQYGGHHKGAVCVALNDV
- binding result (Avo1): binds
